Article PMC4709261, “Guanylate cyclase 1 relies on rhodopsin for intracellular stability and ciliary trafficking” (eLife, 2015)

Target: T1, retinal guanylate cyclase 1 (mouse (endogenous in retina), UniProt P52785 55-1108)
T1 construct: retinal guanylate cyclase 1 (GC-1), mouse, endogenous in the retina; Endogenous protein precipitated by the anti-GC-1 antibody 1S4 and detected by Western blotting; also called GC-1; RetGC1
T1 sequence (looked up): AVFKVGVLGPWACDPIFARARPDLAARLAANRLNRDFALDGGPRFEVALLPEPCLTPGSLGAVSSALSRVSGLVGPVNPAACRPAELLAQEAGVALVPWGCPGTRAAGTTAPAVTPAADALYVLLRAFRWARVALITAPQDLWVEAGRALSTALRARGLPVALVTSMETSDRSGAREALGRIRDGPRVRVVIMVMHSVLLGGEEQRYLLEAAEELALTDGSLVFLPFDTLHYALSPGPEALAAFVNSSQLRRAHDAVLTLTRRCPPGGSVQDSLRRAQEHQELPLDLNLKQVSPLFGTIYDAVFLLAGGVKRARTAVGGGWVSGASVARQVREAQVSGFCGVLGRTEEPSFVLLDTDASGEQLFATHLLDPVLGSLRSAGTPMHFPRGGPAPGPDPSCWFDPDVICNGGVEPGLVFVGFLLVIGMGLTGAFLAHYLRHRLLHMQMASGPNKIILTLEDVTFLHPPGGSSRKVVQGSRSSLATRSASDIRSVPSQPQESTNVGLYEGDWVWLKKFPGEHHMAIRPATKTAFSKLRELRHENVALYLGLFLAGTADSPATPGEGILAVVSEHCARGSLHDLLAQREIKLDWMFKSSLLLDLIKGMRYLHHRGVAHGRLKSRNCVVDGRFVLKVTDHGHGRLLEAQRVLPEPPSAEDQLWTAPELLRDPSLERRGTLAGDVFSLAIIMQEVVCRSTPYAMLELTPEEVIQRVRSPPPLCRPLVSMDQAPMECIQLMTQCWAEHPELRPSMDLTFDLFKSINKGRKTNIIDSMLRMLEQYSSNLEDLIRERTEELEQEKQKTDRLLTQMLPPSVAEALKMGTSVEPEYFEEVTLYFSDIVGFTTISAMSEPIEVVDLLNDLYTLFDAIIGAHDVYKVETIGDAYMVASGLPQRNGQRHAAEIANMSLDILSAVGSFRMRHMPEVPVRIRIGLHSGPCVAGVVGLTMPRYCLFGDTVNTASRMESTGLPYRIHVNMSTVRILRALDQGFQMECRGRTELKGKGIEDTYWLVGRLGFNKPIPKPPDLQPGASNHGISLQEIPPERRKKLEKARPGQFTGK
Test: co-IP; Rho+/- mouse retinal lysate; anti-GC-1 antibody 1S4 (0.2 μg), minimal amount (5 μl) of protein A/G magnetic beads; eluate analysed by Western blotting for GC-1 and rhodopsin; control: non-immune mouse IgG
Conditions: partners not purified

fold of rhodopsin precipitation with anti-GC-1 antibody over non-specific background with non-immune IgG: 6.5 fold
B1: rhodopsin (receptor, mouse (endogenous in retina), UniProt P15409 1-348, looked up)
chain: MNGTEGPNFYVPFSNVTGVVRSPFEQPQYYLAEPWQFSMLAAYMFLLIVLGFPINFLTLYVTVQHKKLRTPLNYILLNLAVADLFMVFGGFTTTLYTSLHGYFVFGPTGCNLEGFFATLGGEIALWSLVVLAIERYVVVCKPMSNFRFGENHAIMGVVFTWIMALACAAPPLVGWSRYIPEGMQCSCGIDYYTLKPEVNNESFVIYMFVVHFTIPMIVIFFCYGQLVFTVKEAAAQQQESATTQKAEKEVTRMVIIMVIFFLICWLPYASVAFYIFTHQGSNFGPIFMTLPAFFAKSSSIYNPVIYIMLNKQFRNCMLTTLCCGKNPLGDDDASATASKTETSQVAPA
notes: rhodopsin, mouse, endogenous in the retina; Endogenous protein precipitated by, or detected with, the anti-rhodopsin antibody 1D4
